Measured values reported in ChEMBL document CHEMBL2073879, “Human monocarboxylate transporter 2 (MCT2) is a high affinity pyruvate transporter” (J Biol Chem, 1998).

B1: Monocarboxylate transporter 2 (Homo sapiens), O60669 (protein)
chain: MPPMPSAPPVHPPPDGGWGWIVVGAAFISIGFSYAFPKAVTVFFKEIQQIFHTTYSEIAWISSIMLAVMYAGGPVSSVLVNKYGSRPVVIAGGLLCCLGMVLASFSSSVVQLYLTMGFITGLGLAFNLQPALTIIGKYFYRKRPMANGLAMAGSPVFLSSLAPFNQYLFNTFGWKGSFLILGSLLLNACVAGSLMRPLGPNQTTSKSKNKTGKTEDDSSPKKIKTKKSTWEKVNKYLDFSLFKHRGFLIYLSGNVIMFLGFFAPIIFLAPYAKDQGIDEYSAAFLLSVMAFVDMFARPSVGLIANSKYIRPRIQYFFSFAIMFNGVCHLLCPLAQDYTSLVLYAVFFGLGFGSVSSVLFETLMDLVGAPRFSSAVGLVTIVECGPVLLGPPLAGKLVDLTGEYKYMYMSCGAIVVAASVWLLIGNAINYRLLAKERKEENARQKTRESEPLSKSKHSEDVNVKVSNAQSVTSERETNI
B2: Monocarboxylate transporter 1 (Rattus norvegicus), P53987 (protein)
chain: MPPAIGGPVGYTPPDGGWGWAVVVGAFISIGFSYAFPKSITVFFKEIEIIFSATTSEVSWISSIMLAVMYAGGPISSILVNKYGSRPVMIAGGCLSGCGLIAASFCNTVQELYFCIGVIGGLGLAFNLNPALTMIGKYFYKKRPLANGLAMAGSPVFLSTLAPLNQAFFGIFGWRGSFLILGGLLLNCCVAGSLMRPIGPQQGKVEKLKSKESLQEAGKSDANTDLIGGSPKGEKLSVFQTVNKFLDLSLFTHRGFLLYLSGNVVMFFGLFTPLVFLSNYGKSKHFSSEKSAFLLSILAFVDMVARPSMGLAANTRWIRPRVQYFFAASVVANGVCHLLAPLSTTYVGFCIYAGVFGFAFGWLSSVLFETLMDLVGPQRFSSAVGLVTIVECCPVLLGPPLLGRLNDMYGDYKYTYWACGVILIIAGLYLFIGMGINYRLVAKEQKAEEKKRDGKEDETSTDVDEKPKKTMKETQSPAPLQNSSGDPAEEESPV

Assays:
[1] = substrate: CC(O)C(=O)[O-].[Na+]; assay: (§1) TP_TRANSPORTER: uptake in Xenopus laevis oocytes; assay type: functional, cell-based; conditions: Oocyte
[2] = substrate: CC(=O)C(=O)O; assay: as §1; assay type: functional, cell-based; conditions: Oocyte

Row | Protein | Km [1] | Km [2]
1 | B1 | 6.5 mM | 0.025 mM
2 | B2 | 6 mM | 2.5 mM
